Source: US20210371491A1, “CHIMERIC ANTIGEN RECEPTORS THAT BIND TO PROSTATE SPECIFIC MEMBRANE ANTIGEN” (Albert-Ludwigs-Universitaet Freiburg, priority 2018, published 2021)

Biological target: prostate specific membrane antigen (PSMA) (UniProt Q04609)
Assay: cell-based or functional assay

Chain of prostate specific membrane antigen (PSMA) (Q04609 whole entry, form in doubt): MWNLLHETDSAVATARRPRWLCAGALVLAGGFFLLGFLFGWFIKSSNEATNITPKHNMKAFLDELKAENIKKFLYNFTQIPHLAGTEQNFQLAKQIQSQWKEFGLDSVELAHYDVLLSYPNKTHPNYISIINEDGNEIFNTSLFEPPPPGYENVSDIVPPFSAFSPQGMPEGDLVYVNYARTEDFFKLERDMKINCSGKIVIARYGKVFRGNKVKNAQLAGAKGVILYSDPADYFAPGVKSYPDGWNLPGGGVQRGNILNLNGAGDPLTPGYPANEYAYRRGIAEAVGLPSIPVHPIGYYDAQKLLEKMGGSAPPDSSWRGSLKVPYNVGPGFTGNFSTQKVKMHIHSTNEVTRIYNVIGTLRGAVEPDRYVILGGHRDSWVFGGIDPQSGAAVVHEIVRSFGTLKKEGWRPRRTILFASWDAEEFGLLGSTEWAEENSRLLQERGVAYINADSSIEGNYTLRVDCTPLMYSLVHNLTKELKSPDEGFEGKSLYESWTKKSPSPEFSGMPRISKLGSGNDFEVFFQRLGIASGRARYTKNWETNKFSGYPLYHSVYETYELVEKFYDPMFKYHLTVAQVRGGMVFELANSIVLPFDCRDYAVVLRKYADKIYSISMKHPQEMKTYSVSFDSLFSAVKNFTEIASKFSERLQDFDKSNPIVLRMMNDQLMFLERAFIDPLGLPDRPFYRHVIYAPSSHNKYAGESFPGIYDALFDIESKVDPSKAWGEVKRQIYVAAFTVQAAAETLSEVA

percentage of CD69-positive CAR Jurkat cells after 24 h stimulation with PSMA-positive tumor cells (C4-2, LNCaP), E:T 1:1: 70%
Substance: CAR28 (J591), anti-PSMA CAR with scFv derived from antibody J591
